# Like-named read-outs stand apart in the source and are kept apart here.
# How the values were obtained:
# [1] = molecular target: the molecule itself; test: SEC
# [2] = molecular target: T1, cyclophilin A (UniProt P62937 1-165); test: NMR titration
# [3] = molecular target: T1, cyclophilin A; test: NMR titration; remark: listed apart in the source
binder,measurement,setting,value
CD147^22–269 (isoform 2 without the signal peptide) (receptor) AAGTVFTTVEDLGSKILLTCSLNDSATEVTGHRWLKGGVVLKEDALPGQKTEFKVDSDDQWGEYSCVFLPEPMGTANIQLHGPPRVKAVKSSEHINEGETAMLVCKSESVPPVTDWAWYKITDSEDKALMNGSESRFFVSSSQGRSELHIENLNMEADPGQYRCNGTSSKGSDQAIITLRVRSHLAALWPFLGIVAEVLVLVTIIFIYEKRRKPEDVLDDDDAGSAPLKSSGQHQNDKGKNVRQRNSS,binding result,[1],binds
CD147^22–214 (domain or fragment) AAGTVFTTVEDLGSKILLTCSLNDSATEVTGHRWLKGGVVLKEDALPGQKTEFKVDSDDQWGEYSCVFLPEPMGTANIQLHGPPRVKAVKSSEHINEGETAMLVCKSESVPPVTDWAWYKITDSEDKALMNGSESRFFVSSSQGRSELHIENLNMEADPGQYRCNGTSSKGSDQAIITLRVRSHLAALWPFLG,Kd,[2],> 1 mM
GSHLAALWPFLG [CD147^10mer peptide (CD147 residues 205–214)],Kd,[3],4.2 ± 0.2 mM

# Source: PMC2940942 (Journal of Molecular Biology, 2009)
